Experimental data: article PMC8556327
Values joined by “and” are separate entries in the source; they are usually repeats but may differ in a detail not shown here. Identical values can stand only once.

Assays:
[1] = target: C-phycocyanin (αβ) monomer from Thermoleptolyngbya sp. O-77 (TlCPC) (Thermoleptolyngbya sp. O-77); test: crystal structure; TlCPC-6 crystals (rhombus or rod), sitting-drop vapor diffusion at 20 °C; reservoir 8% Tacsimate (pH 5.0), 20% polyethylene glycol 3,350; 1.65 Å
[2] = target: C-phycocyanin (αβ) monomer from Thermoleptolyngbya sp. O-77 (TlCPC) (Thermoleptolyngbya sp. O-77); test: cryo-EM structure; TlCPC 6.7 and 10 mg/mL in potassium phosphate buffer (pH 7.0, 10 mM), flash-frozen on holey carbon grid; single particle analysis; hexamers and octamers in the same specimens
[3] = target: C-phycocyanin (αβ) monomer from Thermoleptolyngbya sp. O-77 (TlCPC) (Thermoleptolyngbya sp. O-77); test: crystal structure; TlCPC-8 crystals (cube), sitting-drop vapor diffusion at 20 °C (also obtained at 42 °C); reservoir 1.6 M sodium chloride, 8% polyethylene glycol 6,000, 20% glycerol; space group I432; 2.77 Å
[4] = target: C-phycocyanin (αβ) monomer from Thermoleptolyngbya sp. O-77 (TlCPC) (Thermoleptolyngbya sp. O-77); test: AUC; sedimentation velocity, TlCPC 0.92 mg/mL in potassium phosphate buffer (pH 7.0, 10 mM), 20 °C, 60,000 rpm, absorbance at 277 nm, c(s) distribution (SEDFIT); major species 5.24 S, minor species 3.15 S (monomer), 7.97 S and 11.32 S

stoichiometry N [1]: 6
stoichiometry N [2]: 6 and 8
stoichiometry N [3]: 8
stoichiometry N [4]: 2 and 6 and 4
Substance: C-phycocyanin (αβ) monomer from Thermoleptolyngbya sp. O-77 (TlCPC) (complex)
